Laboratory results published in the RNAGym collection of RNA variant scans (doi:10.1073/pnas.2313332121).

B1: TPR t1 (parent)
chain: GACCAAUCUGCCCUCAGAGCUCGAGAACAUCUUCGGAUGCAGAGGAGGCAGGCUUCGGUGGCGCGAUAGCGCCAACGUCCUCAACCUCCAAUGCAUCCCACCACAUGAUGAUGCCUGAAGAGCCUUGGUUUUUUG

Variants of: B1
Test: polymerase ribozyme fitness, log enrichment relative to wild type (log ratio); higher = more active; in vitro selection for triplet polymerase activity
Method in brief: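 Libraries of mutants in each subunit of a heterodimeric triplet polymerase ribozyme were generated by PCR and transcribed. In triplicate, each went through one in vitro selection round: annealing with biotinylated primer, partner subunit and triplets; frozen incubation at −7 °C; gel excision of extended constructs; streptavidin-bead capture; RT-PCR. Fitness, taken from Illumina sequencing of input and output libraries, is the logarithm of a genotype's enrichment over wild-type enrichment, averaged across replicates with inverse-variance weights. The logarithm is base 2, and genotypes needed ≥10 input reads and ≥1 read per output to be kept.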

| Variant | polymerase ribozyme fitness (log ratio) |
| --- | --- |
| GACCAAUCUGCCCUAAGAGCUCGAGAACAUCUUCGGAUGCAGAGGAGUCGGGCUUCGGUGGCGCGAUAGCGCCAACGUCCUCAACCUCCAAUGCAUCCCACCACAUGAUGAUGCUUGAAGAGCCUUGGUUUUUUG [C15A G48U A50G C115U] | -4.63 |
| GACCGAUCUGCCCUCAGAGCUCGAGAACAUCUUCGGAUGCAGAGGAGGGAGGCUUCGGUGGCGCGAUAGCGCCAACGUCCUCAACCUCCAAUGCAUCCCACCACAUGAUGAUGCCGCAAGAGCCUUGGUUUUUUG [A5G C49G U116G G117C] | -3.05 |
| GACCAAUCUGCCCUCAGAGCUCGAGAACAUCUUCGGAUGCAGAGGAGGCAGGCUUAGGUGGCGCGAUAGCGCAAACGUCCUCAACCUCCAAUGCAUCCCACCACAUGAUGAUGCCUGAAGAGCGCAGGUUUUUUG [C56A C73A C124G U125C U126A] | -2.94 |
| GACCAAUCUGCCCUCAGAGCUCGAGAACAUCUUCGGAUGCAGCGGAGGCAGGCUUCGGUGGCGCGAUAGCGACAACGUCCUCAACCUCCAAUGCAUCCCACCACAUGAUGAUGCCUGAAGAGCCUUGGUUUUUUG [A43C C72A] | -2.05 |
| GACCAAUCUGCUCUCAGAGCUCGAGAACAUCUUCGGAUGCAGAAGAGGCAGGCUUCGGUGGCGCGAUAGCGCCAACGUCCUCAACCUCCAAUGCAUCCCACCACAUGAUGAUGCCUGAAGAGCCUUGGUUAUUUG [C12U G44A U131A] | -1.07 |
| GACCAAUCUGCCCUCAGAGCUCGAGAACAUCUUCGGAUGCAGAGGAGGCAGGCUUCGGUGCCGCGAUAGCGCCAACUUCCUCAACCUCCAAUGCAUCCCACCACAUGAUGAUGCCUGAAGAGCCUUGGUUUUUUG [G61C G77U] | -1.86 |
| GACCAAUCUGCCUUCCGAGCUCGAGAACAUCUUCGGAUGCAGAGGAGGCAGGCUUCGGUGGCGCGAUAGCGCCAACGUCCUCAACCUCCAAUGCAUCCCACCACAUGAUGAUGCCUGAAGAGCCUUGGUUUUUUG [C13U A16C] | -0.368 |
| GACCAAUCUGCCCUCAGAGCUCGAGAACAUCUUCGGAUGCAGAGGAGGCAGUCUUCGGUGGCGCGAUAGCGCCAACGUCCUCAACCUCCAAUGCAUCCCACCACAUGAUGAUGCCUUAAGAGCCUUGGUUUUUUG [G52U G117U] | -3.39 |
| GACCAAUCUCCCCUCAGAGCUCGAGAACAUCUUCGGAUGCAGAGGAGGCAGGCUUCGGUGGCGCGAUAGCUCCAACGUCCUCAACUUCCAAUGCAUCCCACCACAUGAUGAUGCCUGAAGAGCCUUGGUUUUUUG [G10C G71U C86U] | -1.57 |
| GACCAAUCUGCCCUCAGAGCUCGAGAACAUCUUCGGAUGCAGAGGAGGACGGCUUCGGUGGCGCGAUAGCGCCAACGUCCUCAACCUCCAAUGCAUCCCACCACAUGAUGAUGCCUUAAGAGCCUUGGUUUUUUG [C49A A50C G117U] | -3.66 |
| GACCAAUCUGCCCUCAGAGCUCGAGAACAUCUUCGGAUGCAGAGGAGGCAGGCUUCGGUGGCGCGAUAGCGCCAACGUCCUCAACCUCCAAUGCAUCCCACCACAAGAUGAUGCCUGAAGAGCCUUGGUUUUUUG [U106A] | 0.145 |
| GACCAAUCUGCCCUCAGAGCUCGAGAACAUCUUCGGAUGCAGAGGAGGCAGGCUUCGGUAGCGCGAUAGCGCCAACGUCCUCAACCUCCAAUGCAUCUCACCACAUGAUGAUGCCUGAAGAGCCUUGGUUUUUUG [G60A C98U] | -0.842 |
| GACCAAUCUGUCCUCGGAGCUCGAGAACAUCUUCGGAUGCAGAGGAGGCAGGCGUCGGUGGCGCGAUAGCGCCAACGUCCUCAACCUCCAAUGCAUCCCACUAUAUGAUGAUGCCUAAAGAGCCUUGGUUUUUUG [C11U A16G U54G C102U C104U G117A] | -5.64 |
| GACCAAUCCGCCCUCAGAGCUCGAGAACAUCUUCGGAUGCAGAGGAGGCAGGCUUCGGUGGCGCGAUAGCGCCAACGUCCUCAACCUCCAAUGCAUCCCACCACAUUAUGAAGCCUGAGGAGCCUUGGUUUUUUG [U9C G107U U112A A119G] | -4.69 |
| GACCAAUCUGCCCUCAGAGCUCGAGAACAUCUUCGGAUGCAGAGAAGGCAGGCUUCGGUGGUGCGAUAGCGCCAACGUCCUCAACCUCCAAUGCAUCCCACCACAUGAUGAGGCGUGAAGAGCCUUGGUUUUUUG [G45A C62U U112G C115G] | -2.08 |
| GACCAAUCUGCCCUCAGAGCUCGAGAACAUCUUCGGAUGCAGAGGAGGCAGGCUUCGGUGGCGCGAUAGGGCCAACGUCCUCAACCUCCAAUGCAUCCCACCACAUGAUGAUGCCUGAAGAGCCUUGGAUUUUUG [C70G U129A] | -4.27 |
| GACCAAUCUGCCCUCAGAGCUCGAGAACAUCUUCGGAUGUAGAGGAGGCAGGCUUCGGUGGCGCGAUAGCGCCAACGUCCUCAACCUCCAAUGCAUCCCACCACAUGAUGAUGCCUGAAAAGCCUUGGUUUUUUG [C40U G120A] | 0.164 |
| GACCAAUCGUCCCUCAGAGCUCGAGAACAUCUUCGGAUGCAGAGGAGGCAGGCUUCGGUGGCGCGAUAGGGCCAACGUCCUCAACCUCCAAUGCAUCCCACCACAUGAGGAUGCCUGAAGAGCCUUGGUUUUUUG [U9G G10U C70G U109G] | -6.73 |
| GACCAAUCUGCCCUCAGAGCUCGAGAACAUCUUCGGAUGCAGAGGAGGCAGGCUUCGGUGGCGCGAUGGCGCCAACGUCCUCAACCUCCAAUGCAUCCCACCCCAUGAUGAUGCCUGAAGAGCCUUGGUUUUUUG [A68G A103C] | -5.02 |
| GACCAAUCUGCCCUCAGAGCUCGAGAACAUCUUCGGAUGCAGAGGAGGCAGGCUUAGGUGGCGCGAUAGCGCCAACGUCCUCAACCUCCAAUGCAUCCUACCACAUGAUGAUGCCUGAAGCGCCUUGGUUUUUUG [C56A C99U A121C] | -2.01 |
| GACCAAUCUGCCCUCAGAGCUCGAGAACAUCUUCGGAUGCAGAGGUGGCAGGCUUCGGUAGCGCGAUAGCGCCAACGUCCUCAACCUCCAAUGCAUCCCACCACAUGAUGAUGCCUGAAGAGCCUUGGUUUUUUG [A46U G60A] | -1.55 |

| Variant | polymerase ribozyme fitness (log ratio) |
| --- | --- |
| GACCAAUCUGCCCUCAGAGCUCGAGAACAUCUUCGGAUGCAGAGGAGGCAGUCUGCGGUGGCGCGAUAGCGCCAACGUCCUAAACCUCGAAUGCAUCCCACCACAUGAUGAUGCCUGAAGAGCCUUGGUUUUUUG [G52U U55G C82A C89G] | -3.64 |
| GACCAAUCUGCCCUCAGAGCUCGAGAACAUCUUCGGAUGCAAGGGAGGCAGGCUUAGGUGGCGCGUUAGCGCCAACGUCCUCAACCUCCAGUGCAACCCACCACAUGAUGAGGCCUGAAGAGCCUUGGUUUUUUG [G42A A43G C56A A66U A91G U96A U112G] | -6.49 |
| GACCAAUCUGCCCUCAGAGCUCGAGAACAUCUUCGGAUGCAGAGGAGGCAGGCUUCGGUGGCGCGAUAGCGGCAACGUCCUCAACUUCCAAUGCAUCCCACCACAUGAUGAUGCCUGAAGAGCCUUGGUCUUUUG [C72G C86U U130C] | -0.236 |
| GACCUAUCUGCCCUCAGAGCUCGAGAACAUCUUCGGAUGCAGAGGAGGCAGGCUUCGGUGGCGCGAUAGCGCCCACGUCCUCAACCUCCAAUGCAUCCCACCACAUGAUGAUGCCUGAAGAACCUUGGUUUUUUG [A5U A74C G122A] | -1.42 |
| GACCAAUCUGCUCUCAGAGCUCGAGAACAUCUUCGGAUGCAGAGGAGGCAGGUUUCGGUGGCGCGAUAGCGCCAACGUCCUCAACCUCCAAUGCAUCCCACCACAUGAUGAUGCCUGAAGAGCCUUGGUUUUUUG [C12U C53U] | 0.906 |
| GACCAAUCUGCCCUCAGAGCUCGAGAACAUCUUCGGAUGCAGAGGAGGCAUGCUUCAGUGGCGCUAUAGCGCCAACGUCCUCAACCUCCAAUGCAUCCCACCACAUGAUGAUGCCUGAAGUGCCUUGGUUUUUUG [G51U G57A G65U A121U] | -7.73 |
| GACCAAUCUGCCCUCAGAGCUCGAGAACAUCUUCGGAUGCAGAGGAGGCAGGCUUCGGUGGCGCGAUAUCGCCAACGUCCUCAAACUCCAAUGCAUCCCAACACAUGAUGAUGCCUGAAGAGCCUUGGUUUUUUG [G69U C85A C101A] | -1.66 |
| GACCAAUCUGCCCUCAGAGCUCGAGAACAUCUUCGGAUGCAAAGGAGGCAGGCUUCGGUGCCGCGAUAGCGCCAACGUCCUCAACCUCCAAUGCAUCCCACCACAUGAUGAUGCCUGAAGAGCCUUGGUUUUUUG [G42A G61C] | -3.18 |
| GACCAAUCUGCCCUCAGAGCUCGAGAACAUCUUCGGAUGCAGAGGAGGCAGGCUUCGGUGGAGCGAUAGCGCCGACGUCCUCAACCUCCAAUGCAUCCCACCACAUGAUGAUGCCUGAAGAGCCUUGGUUUUUUG [C62A A74G] | -5.22 |
| GACCAAUCUGCCCUCAGAGCUCGAGAACAUCUUCGGAUGCAGAGGAGGCAGGCUUCGGUGGCGCGAUAGCCCCAACGUUCUCAACCUCCAAUGCAUCCCAUCACAUGAUGAUGCCUGAAGAGCCUUGGUUUUUUG [G71C C79U C101U] | -0.546 |
| GACCAAUCUGCCCUCAGAGCUCGAGAACAUCUUCGGAUGCAGAGGAGGCAGGCUUCGGUGGCGCGAUAGCGCCAACGUCCUCAACCUCCAAUGCAUCCCACCAAAUGAUGAUGCCUGAAGAGGCUUGGUUUUUUG [C104A C123G] | -0.779 |
| GACCAAUCUGCCCUCAGAGCUCGAGAACAUCUUCGGAUGCAGAGGAGGCAGGCUUCGGUGGCGCGAUAGCGCCAACGUCCUCAACCUCCAAUGCAUCCCACCACAUGAUGAUACCUGAACAGCCUUGGUUUUUUG [G113A G120C] | -1.02 |
| GACCAAUCAGCCCUCAGAGCUCGAGAACAUCUUCGGAUGAAGAGGAGGCAGGCUUCGGUGUCGCGAUAGCGCCAACGUCCUCAACCUCCAAUCGAUCCCACCACAUGAUGAUGCCUGAAGAGCUUUGGUUUUUUG [U9A C40A G61U G93C C94G C124U] | -0.833 |
| GACGAAUCUGCCCUCAGAGCUCGAGAACAUCUUCGGAUGCAGAGGAGGCAGGCUUCGGUGGCGCGAUAGCGCUAACGUCCUCAACCUCCAACGCAUCCCACCACAUGAUGAUGCCUGAAGAGCCUUGGUUUUUUG [C4G C73U U92C] | -2.66 |
| GACCAAUCUGGCCUCAGAGCUCGAGAACAUCUUCGGAUGCAGAGGAGGCAGGCUUCGGUGGCGCGAUAGCGCCAACGUCCUCAACCUCCAAUGCAACCCACCACAUGAUGAUGCCUGAAGAGCCUUGGGUUUUUG [C11G U96A U129G] | -2.87 |
| GACCAAUCUGCCCUCAGAGCUCGAGUACAUCUUCGGAUGCAGAGGAGGCAGGCUUCGGUGGCGCGAUAGCGCAAACGUCCUCAACCUCCAAUGCAUCCCACCACAUGAUGAUGCCUGAAGAGCCUUGGUUUUUUG [A26U C73A] | -2.82 |
| GACCAAUCUGCCCUCAGAGCUCGAGAACAUCUUCGGAUGCAGAGGAGGCAGGCUUCGGUGGGGCGAUAGCGCCAACGUCCUCAACCUCCAAUGCAUCCCACCAAAUGAUGAUGCCUGAAGAGCCUUGGUUUUUUG [C62G C104A] | -4.04 |
| GGCCAAUCUGCCCUCAGAGCUCGAGAACAUCUUCGGAUGCAGAGGAGGCAGGCUUCGGUGGCGCGAUAGCGCCAACGUCCUCAACCUCCAAUGCAUCCCAGCACAUGAUGAUGCCUGAAGAGCCUUGGUUUUUUG [A2G C101G] | -1.53 |
| GACCAAACUGCCCUCAGAGCUCGAGAACAUCUUCGCGUGCAGAGGAGGCAGGCUUCGGUGGCGCGAUAGCGCCAACGUCCUCAACCUCCAAUGCAUUCCACCACAUGAUGAUCCCUGAAGAGCCUUGGUUUUUUG [U7A G36C A37G C97U G113C] | -3.07 |
| GACCAAUCUGCCCUCAGAGCUCGAGAACAUCUUCGGAUGCAGAGGAGGCAGGCUUCGGUGGCGCGAUAGCGCCAACGUCCUCAACCUCCAAUGCAACCCACCACUUGAUGAUGCCUGAAGAGCCUUGGUUUUUUG [U96A A105U] | -4.09 |
| GACCAAUCUGCCCUCAGAGCUCGAGAACAUCUUCGGAUGCAGAGGAGGCAGGCUUCGGUGGCGCGAUAGCGCCAACGUCCUCAACCUCCAAUGCAUCCCACAACAUGAUGAUGCCUGAAGAGCCCUGGUUUUUUG [C102A U125C] | -4.05 |
